# Like-named read-outs stand apart in the source and are kept apart here.
# Test system: cytochrome P-450 reductase from P. somniferum cell suspension cultures
# Conditions: for Km: read-out: Km value, purified P. somniferum reductase (mixture of two isozymes)
# Description: Purification and sequence analysis. Cells were harvested from seven-day-old suspension cultures of P. somniferum by vacuum filtration, immediately shock frozen and stored at −20° C. All of the following operations were carried out at 4° C. 500 g frozen tissue were then homogenised with a mortar and pestle in 1 liter 0.1 M tricine/NaOH, pH 7.5 containing 15 mM thioglycolic acid. Cell debris was removed by centrifugation at 10,000× g, 30 min. The supernatant was filtered through four layers of cheesecloth and the microsomes were then isolated by MgCl2 precipitation according to (19). […] Microsomal protein was solubilized as follows. 2 mg CHAPS (3[(3-cholamidopropyl)dimethyl-ammonio]-1-propane-sulfonate, Roth) per mg microsomal protein was prepared in 1 mL of 0.1 M tricine/NaOH, pH 7.5 containing 15 mM thioglycolic acid. This solution was added dropwise to the microsomal suspension. 2% (v/v) Emulgen 911 (Kao Corporation) was then added and the solution slowly stirred for 1 h. Membrane fragments were removed by centrifugation at 105,000× g for 60 min. The total activity in the solubilized microsomes was assigned the value 100%. The solubilized cytochrome P-450 reductase was then purified to electrophoretic homogeneity according to (20).
# Yeast microsomes were isolated according to either (22) or (23) and the presence cytochrome P-450 reductase was measured as the ability to reduce cytochrome c (24).
Compound,Km,optimal molarity range of the Tricine buffer,activity declined to (at 100 mM Tricine),activity declined to (at 1 M Tricine),pH optimum (in 0.5 M Tricine buffer)
"NC(=O)C1=CN([C@@H]2O[C@H](COP(=O)(O)OP(=O)(O)OC[C@H]3O[C@@H](n4cnc5c(N)ncnc54)[C@H](OP(=O)(O)O)[C@@H]3O)[C@@H](O)[C@H]2O)C=CC1 [NADPH, reference compound]",4.2 µM,–,–,–,–
cytochrome c [reference compound],8.3 µM,–,–,–,–
purified reductase: cytochrome P-450 reductase purified from P. somniferum cell suspension cultures,–,250 to 500 mM,21%,77%,8.0
